Measured values from patent US20040091974A1 (KIRIN BEER, published 2004).
cellulose membrane = peptide bound to a cellulose membrane through the C-terminus

Legend:
[1] = biological target: T1, 13-mer peptide, amino acids 61 to 73 of the HLA-DR β chain (DRB1*15011) (human); experiment: SPOT 13-mer peptide array on cellulose membrane, chemiluminescence
T1 peptide: Ac-WNSQKDILEQARA-{cellulose membrane}
Description: (§1) The epitope of each antibody was analyzed by Western blotting in accordance with a conventional technique. In simple terms, a cellulose or PVDF membrane was blocked with Block Ace (Yukijirushi), etc., each antibody was allowed to react therewith at 1 μg/mL as a primary antibody and at 0.5 μg/mL as a secondary antibody using […], the HRP-labeled anti-human antibody (e.g., DAKO) was allowed to react therewith, and the chemiluminescence was detected using a chemiluminescent reagent (e.g., ECL Western blotting detection reagent, Amersham Bioscience) and a chemiluminescence detector (e.g., LAS-1000, Fuji Film).
(§2) The subsequent reaction was carried out based on conventional Western blot analysis (see, for example, Reineke, U. et al., (2001), “Epitope mapping with synthetic peptides prepared by SPOT synthesis.” Antibody Engineering (Springer Lab Manual) Eds.: Kontermann/Dubel, 433459). In the analysis, LumilmagerTM (Boehringer-Mannheim) was used to represent the color intensity in each spot by numerical values.

[2] = biological target: T2, SEQ ID NO 40 (human); experiment: alanine-substituted 61-73 peptide spots, chemiluminescence
T2 construct: The entry already carries the substitution
T2 peptide: Ac-WNSQKDALEQRRA-{cellulose membrane}
Description: as §1, §2
(§3) Further, 12 peptides (SEQ ID Nos: 40 to 51) in which each amino acid has been substituted with alanine ([…] if it is originally alanine) were subjected to Western blotting under similar conditions. In the analysis, LAS2000 and ImageGauge analyzing software (Fuji Photo Film) were used to represent the color intensity in each spot by numerical values.

[3] = biological target: T3, SEQ ID NO 43 (human); experiment: as above
T3 construct: The entry already carries the substitution
T3 peptide: Ac-WNSQKDLLEQRRG-{cellulose membrane}
Description: as §1, §2, §3

[4] = biological target: T4, SEQ ID NO 44 (human); experiment: as above
T4 construct: The entry already carries the substitution
T4 peptide: Ac-ANSQKDLLEQRRA-{cellulose membrane}
Description: as §1, §2, §3

[5] = biological target: T5, SEQ ID NO 45 (human); experiment: as above
T5 construct: The entry already carries the substitution
T5 peptide: Ac-WASQKDLLEQRRA-{cellulose membrane}
Description: as §1, §2, §3

[6] = biological target: T6, SEQ ID NO 46 (human); experiment: as above
T6 construct: The entry already carries the substitution
T6 peptide: Ac-WNAQKDLLEQRRA-{cellulose membrane}
Description: as §1, §2, §3

[7] = biological target: T7, SEQ ID NO 47 (human); experiment: as above
T7 construct: The entry already carries the substitution
T7 peptide: Ac-WNSAKDLLEQRRA-{cellulose membrane}
Description: as §1, §2, §3

[8] = biological target: T8, SEQ ID NO 42 (human); experiment: as above
T8 construct: The entry already carries the substitution
T8 peptide: Ac-WNSQKDLLEQARA-{cellulose membrane}
Description: as §1, §2, §3

[9] = biological target: T9, SEQ ID NO 51 (human); experiment: as above
T9 construct: The entry already carries the substitution
T9 peptide: Ac-WNSQKDLLEQRAA-{cellulose membrane}
Description: as §1, §2, §3

[10] = biological target: T10, SEQ ID NO 48 (human); experiment: as above
T10 construct: The entry already carries the substitution
T10 peptide: Ac-WNSQADLLEQRRA-{cellulose membrane}
Description: as §1, §2, §3

[11] = biological target: T11, SEQ ID NO 50 (human); experiment: as above
T11 construct: The entry already carries the substitution
T11 peptide: Ac-WNSQKDLLAQRRA-{cellulose membrane}
Description: as §1, §2, §3

[12] = biological target: T12, SEQ ID NO 41 (human); experiment: as above
T12 construct: The entry already carries the substitution
T12 peptide: Ac-WNSQKDLLEARRA-{cellulose membrane}
Description: as §1, §2, §3

[13] = biological target: T13, SEQ ID NO 49 (human); experiment: as above
T13 construct: The entry already carries the substitution
T13 peptide: Ac-WNSQKALLEQRRA-{cellulose membrane}
Description: as §1, §2, §3

[14] = biological target: T14, 13-mer peptide, amino acids 65 to 77 of the HLA-DR β chain (DRB1*15011) (human); experiment: SPOT 13-mer peptide array on cellulose membrane, chemiluminescence
T14 peptide: Ac-KDILEQARAAVDT-{cellulose membrane}
Description: as §1, §2

[15] = biological target: T15, SEQ ID NO 37 (human); experiment: polymorphic 61-73 peptide spots, chemiluminescence
T15 peptide: Ac-WNSQKDLLEDRRA-{cellulose membrane}
Description: as §1
(§4) The subsequent reaction was carried out based on conventional Western blot analysis (see, for example, Reineke, U. et al., (2001), “Epitope mapping with synthetic peptides prepared by SPOT synthesis.” Antibody Engineering (Springer Lab Manual) Eds.: Kontermann/Dubel, 433459). In the analysis, LumilmagerTM (Boehringer-Mannheim) was used to represent the color intensity in each spot by numerical values. […]

[16] = biological target: T16, SEQ ID NO 25 (human); experiment: polymorphic 61-73 peptide spots, chemiluminescence
T16 peptide: Ac-WNSQKDFLERRRA-{cellulose membrane}
Description: as §1, §4

[17] = biological target: T17, SEQ ID NO 24 (human); experiment: polymorphic 61-73 peptide spots, chemiluminescence
T17 peptide: Ac-WNSQKDFLEDRRA-{cellulose membrane}
Description: as §1, §4

[18] = biological target: T18, SEQ ID NO 38 (human); experiment: polymorphic 61-73 peptide spots, chemiluminescence
T18 peptide: Ac-WNSQKDLLERRRA-{cellulose membrane}
Description: as §1, §4

[19] = biological target: T19, SEQ ID NO 34 (human); experiment: polymorphic 61-73 peptide spots, chemiluminescence
T19 peptide: Ac-WNSQKDLLEQRRA-{cellulose membrane}
Description: as §1, §4

[20] = biological target: T20, SEQ ID NO 26 (human); experiment: polymorphic 61-73 peptide spots, chemiluminescence
T20 peptide: Ac-WNSQKDFLEDERA-{cellulose membrane}
Description: as §1, §4

[21] = biological target: T21, SEQ ID NO 30 (human); experiment: polymorphic 61-73 peptide spots, chemiluminescence
T21 peptide: Ac-WNSQKDILEDRRA-{cellulose membrane}
Description: as §1, §4

[22] = biological target: T22, SEQ ID NO 27 (human); experiment: polymorphic 61-73 peptide spots, chemiluminescence
T22 peptide: Ac-WNSQKDFLEQARA-{cellulose membrane}
Description: as §1, §4

[23] = biological target: T23, SEQ ID NO 39 (human); experiment: polymorphic 61-73 peptide spots, chemiluminescence
T23 peptide: Ac-WNSQKDLLEDERA-{cellulose membrane}
Description: as §1, §4

[24] = biological target: T24, SEQ ID NO 31 (human); experiment: polymorphic 61-73 peptide spots, chemiluminescence
T24 peptide: Ac-WNSQKDILEDRRG-{cellulose membrane}
Description: as §1, §4

[25] = biological target: T25, SEQ ID NO 35 (human); experiment: polymorphic 61-73 peptide spots, chemiluminescence
T25 peptide: Ac-WNSQKDLLEQARA-{cellulose membrane}
Description: as §1, §4

[26] = biological target: T26, SEQ ID NO 29 (human); experiment: polymorphic 61-73 peptide spots, chemiluminescence
T26 peptide: Ac-WNSQKDILEQKRG-{cellulose membrane}
Description: as §1, §4

[27] = biological target: T27, SEQ ID NO 33 (human); experiment: polymorphic 61-73 peptide spots, chemiluminescence
T27 peptide: Ac-WNSQKDILEQARA-{cellulose membrane}
Description: as §1, §4

[28] = biological target: T28, SEQ ID NO 28 (human); experiment: polymorphic 61-73 peptide spots, chemiluminescence
T28 peptide: Ac-WNSQKDILEDERA-{cellulose membrane}
Description: as §1, §4

[29] = biological target: T29, SEQ ID NO 32 (human); experiment: polymorphic 61-73 peptide spots, chemiluminescence
T29 peptide: Ac-WNSQKDILEDKRA-{cellulose membrane}
Description: as §1, §4

[30] = biological target: T30, SEQ ID NO 36 (human); experiment: polymorphic 61-73 peptide spots, chemiluminescence
T30 peptide: Ac-WNSQKDLLEQKRG-{cellulose membrane}
Description: as §1, §4

B1: HD4 (antibody, IgG1, V domains shown)
VH: EVQLLESGGGLVQPGGSLRLSCAASGFTFSSYAMTWVRQAPGKGLEWVSGISGGGDSTYYADSVKGRFTISRDNSKNTLYLQMNSLRAEDTAVYYCARDHGSGSYYPYWFDYWGQGTLVTVSS
VL: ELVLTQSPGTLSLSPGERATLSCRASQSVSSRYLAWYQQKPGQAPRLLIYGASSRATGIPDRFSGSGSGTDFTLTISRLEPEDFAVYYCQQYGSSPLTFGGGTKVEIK
notes: also called antibody produced from the hybridoma HD4 (FERM BP-7771)
B1: binds [1].

B2: HD8 (antibody, IgG2, V domains shown)
VH: QVQLQHSGPGLVKPSQTLSLTCAISGDSVSSNSASWNWIRQSPSRGLEWLGRTYYRSKWYNDYAVSVKSRIVINPDTSKNQFSLQLNSVTPEDTAVYYCARENFYGSETCHKKYYCYGMDVWGQGTTVTVSS
VL: AIQLTQSPSSLSASVGDRVTITCRASQGISSALAWYQQKPGKAPKLLIYDASSLESGVPSRFSGSGSGTDFTLTISSLQPEDFATYYCQQFNSFPLTFGGGTKVEIK
notes: also called antibody produced from the hybridoma HD8 (FERM BP-7773)
B2: binds [2]; binds [3]; binds [4]. B2: binds [5]; binds [6]; binds [7]. B2: binds [8]; no binding (tested: 1 µg/mL) [9]; no binding (tested: 1 µg/mL) [10]. B2: no binding (tested: 1 µg/mL) [11]; binds [12]; no binding (tested: 1 µg/mL) [13]. B2: binds [14]; binds [1]; binds [15]. B2: binds [16]; binds [17]; binds [18]. B2: binds [19]; binds [20]; binds [21]. B2: binds [22]; binds [23]; binds [24]. B2: binds [25]; binds [26]; binds [27]. B2: binds [28]; binds [29]; binds [30].
